Our source for the self-cleavage values is the RNAGym collection of RNA variant scans (doi:10.7554/elife.90254).

Sequences and labels used below:
B1: LINE1-full (parent)
chain: UACGUAGGUGGUUUUCCCCUGAUAGUGCUAAGGGGGCCUGGAAGUUUGGACUGGGCAGAGCUCAACACAGCGUGGCAAAGUGGCUGUGGCUAGACUGCCUCUCUGGAUUCCUCGUCACUCAGCAGGGCAUCUCUGAGAGAAAUGCC

In the data set the parent is B1. As to the kind of experiment: self-cleavage, relative activity (ratio to wild type); higher = more cleavage; in vitro, sequencing; the parent is a self-cleaving ribozyme.
As to U14A U62A, the self-cleavage worked out at 0.05.
Under U14A U134A stands 0.81; under U14A U87C, 0.12; under U14C U85G, 0.
Take U14A A30G: the self-cleavage turned out to be 1.27.
Turning to U14C C51U, the self-cleavage stood at 0.71.
For the variant U14C C51G, the self-cleavage amounted to 1.84.
Then U14C A59U, with 0.88; and U14C A78G, with 1.22.
Take U14C A78C: the self-cleavage was 1.74.
Under U14A U29A stands 1.51; under U14A U29C, 1.28; under U14C A69G, 0.6.
Under U14A U102A stands 0.99.
Then U14C C18A, with 1.24; and U14C G36A, with 1.55.
As for U14C G36U, the self-cleavage worked out at 1.31.
Under U14C G25U stands 1.26.
Then U14C G25C, with 0.5; and U14A A136C, with 1.78.
On to U14A A136G, for which the self-cleavage worked out at 0.97.
Under U14C C145A stands 1.28; under U14C C145U, 1.41.
Consider U14C C145G, for which the self-cleavage came to 0.63.
Then U14A A50G, with 1.25; and U14C U26A, with 0.95; and U14C U81A, with 1.34.
Then U14A U39C, with 0.95; and U14A U39A, with 0.8.
With U14A A31G, the self-cleavage is 0.89.
With U14A A31U, the self-cleavage is 0.84.
Take U14C C99A: the self-cleavage stood at 0.86.
Consider U14C U108C, for which the self-cleavage was 1.44.
Then U13G U100A, with 0.77.
Under U14A U26A stands 0.79; under U14C C128U, 0.2.
For U14A A141G, the self-cleavage turned out to be 1.
Under U14A stands 1.01.
Then U14C, with 1.15; and U14A U81A, with 2.09.
Then U14A U81C, with 1.1.
On to U14A U81G, for which the self-cleavage was determined as 0.8.
Consider U14C U52A, for which the self-cleavage stood at 0.85.
Then U14C C38U, with 1.09.
Turning to U14A C101A, the self-cleavage stood at 1.42.
Then U14C G86U, with 0.08.
Under U14A A24G stands 0.96; under U14A A24U, 0.77.
Under U14A U73A stands 1.39; under U14C G74A, 0.96.
With U14A U119A, the self-cleavage amounted to 1.02.
Turning to U14A A138G, the self-cleavage is 1.15.
Consider U14C C76U, for which the self-cleavage turned out to be 1.23.
Then U14C A129U, with 1.35; and U14C A92G, with 0.14; and U14C A92U, with 0.89.
Under U14C G58U stands 0.03; under U14C G58C, 0.08.
On to U14C G58A, for which the self-cleavage was 0.06.
Turning to U14C G105U, the self-cleavage was 1.11.
U14C G105A: the self-cleavage worked out at 1.38.
Under U14C U100C stands 1.55.
Then U14C U100G, with 1.38.
Then U14C U100A, with 0.9; and U14C G60U, with 0.04; and U14C A117G, with 1.22.
In the case of U14C A64U, the self-cleavage stood at 0.46.
Then U14C G54A, with 0.71; and U14A C103U, with 0.99; and U14A C28U, with 0.66.
Then U14A A78G, with 0.34.
Take U14C U45C: the self-cleavage turned out to be 1.21.
Take U14C U20C: the self-cleavage was 1.05.
Then U14C C146U, with 1.32; and U14C A31U, with 1.11.
Regarding U14C A31G, the self-cleavage amounted to 1.24.
In the case of U14C A121G, the self-cleavage was 1.3.
Under U14C A121C stands 1.13.
With U14C A121U, the self-cleavage was determined as 1.25.
Under U14A U23C stands 1.44.
As for U14C U109C, the self-cleavage came to 1.25.
Under U14A A67U stands 0.1; under U14C U46A, 1.4.
In the case of U14C U46C, the self-cleavage amounted to 1.3.
For the variant U14C G139U, the self-cleavage was 1.63.
Then U13G U85A, with 0.06; and U14C U87A, with 0.15.
Under U14C U87C stands 0.26; under U14C U87G, 0.31.
Under U14A A142G stands 0.85; under U14C U102C, 1.09; under U14A G70A, 0.19.
On to U14C U29C, for which the self-cleavage amounted to 1.4.
Regarding U14C C110A, the self-cleavage was found to be 1.33.
Under U14C C110U stands 1.39.
Turning to U14C A79U, the self-cleavage is 1.97.
Consider U14C G127A, for which the self-cleavage is 1.
Take U14C G127U: the self-cleavage was determined as 1.73.
Then U14A U143C, with 1; and U14A U47C, with 1.14; and U14C U91C, with 0.79.
Under U14C U91G stands 0.24; under U14C U23A, 1.62; under U14C U23G, 0.93.
On to U14C U23C, for which the self-cleavage is 1.4.
Under U14C C123U stands 1.05; under U14C U39G, 0.36; under U14A A140U, 1.43.
Take U14A A140G: the self-cleavage came out at 0.91.
Then U14C U96A, with 0.13; and U14C G83A, with 1.07; and U14A U52C, with 0.8.
In the case of U14C A65U, the self-cleavage was 0.19.
Take U14C G97A: the self-cleavage amounted to 0.09.
Under U14A A43G stands 0.43; under U14C G41U, 0.71.
For U14C G55C, the self-cleavage is 0.09.
Then U14A A129G, with 1.84; and U13G U104A, with 1.39; and U14A U132C, with 1.35.
Then U14C G88A, with 0.09; and U14A U46A, with 0.86.
With U14A U46C, the self-cleavage was found to be 1.17.
Regarding U14C U104C, the self-cleavage was determined as 1.51.
Consider U13G U132G, for which the self-cleavage is 2.18.
Then U14C G48A, with 1.12.
Take U14A G114A: the self-cleavage worked out at 0.83.
Regarding U14C C16A, the self-cleavage amounted to 0.84.
Then U14C A22U, with 2.36; and U14C U112A, with 1.17; and U14C A142G, with 1.34.
Regarding U14A C99U, the self-cleavage was 0.85.
Then U14C A67G, with 0.61; and U14C C19U, with 0.83.
For U14C C113A, the self-cleavage amounted to 1.19.
With U14C C113U, the self-cleavage turned out to be 0.82.
Under U14C C131A stands 1.15.
For the variant U14C G32U, the self-cleavage came out at 1.03.
Under U14C G32C stands 1.58; under U14C C90U, 0.01; under U14C U73A, 1.31.
For U14C U73C, the self-cleavage came to 1.62.
Under U14C C68A stands 0.09.
Under U14C C68U stands 0.32.
With U14A U45G, the self-cleavage was determined as 0.77.
As for U14A U45A, the self-cleavage is 0.23.
Under U14A U45C stands 1.09; under U14A U109C, 1.05; under U13G U115G, 1.43.
Then U14A U130C, with 0.83.
Then U14C A77G, with 1.73; and U14C A77C, with 2.68.
Regarding U14C A42G, the self-cleavage came to 1.15.
Under U14C C61G stands 0.1.
Under U14C A50U stands 1.03.
Under U14A U104C stands 1.69.
Consider U14A U104A, for which the self-cleavage amounted to 1.16.
On to U14C A94C, for which the self-cleavage came to 0.09.
Turning to U14C A94G, the self-cleavage stood at 0.31.
Consider U14A U96C, for which the self-cleavage stood at 0.04.
Regarding U14A A77G, the self-cleavage was 1.39.
As for U14C U47C, the self-cleavage came out at 1.56.
Then U14C U47G, with 1.4; and U14C G34A, with 0.92; and U14C G34U, with 0.45.
As to U14C A57U, the self-cleavage was determined as 0.06.
Then U14A G72U, with 1.32.
